Measured values: patent US5543264

Assays:
[1] = target: purified recombinant Ad2 proteinase (rEP) (human adenovirus type 2)
[2] = target: (Leu-Arg-Gly-Gly-NH)2-rhodamine
[3] = target: purified recombinant Ad2 proteinase (rEP) (human adenovirus type 2); remark: listed apart in the source

Molecule | stimulation of the rate of substrate hydrolysis by rEP with pVIc peptide [1] [fold] | other results
polyaspartic acid | 5 | 
polyglutamic acid | 8.9 | 
polylysine | < 1 | 
purified recombinant Ad2 proteinase (rEP) (enzyme) |  | rate of substrate hydrolysis, fluorescence assay (pmol substrate min^-1) [2]: 25.6
GVQSLKRRRCF [Ad2 pVI-c peptide cofactor (11-amino acid carboxy terminus of pVI)] |  | activation of rEP, rate of hydrolysis of (Leu-Arg-Gly-Gly-NH)2-rhodamine [3]: 2.76 pmol/min
